# Source: PMC10069731 (Communications Biology, 2023)
# B1: rabbit monoclonal antibody (RmAb) 1H1, IgG (antibody, V domains shown)
# VH: QSLEESGGDLVKPGASLTLTCTASGFSFSSGYDMCWVRQAPGKGLEWIACIGTGSSGNIYYASWAKGRFTISKTSSTTVTLQMTSLTAADTATYFCARDDADYAGPDYFNLWGPGTLVTVSS
# VL: DIVMTQTPASVSEPVGGTVTIKCQASESISNWLAWYQQKPGQPPKLLIYAAFTLASGVPSRFKGSGSGTQFTLTINGVECADAATYYCQQTYSSRDVDNVFGGGTEVVVK
# Legend:
# [1] = target: SARS-CoV-2 Omicron BA.4/5 RBD (SARS-CoV-2 Omicron BA.4/5, strain); test: BLI; conditions: both partners purified
# [2] = target: SARS-CoV-2 WT spike ECD, 6P-stabilized (SARS-CoV-2, WT (ancestral), UniProt P0DTC2, stabilised); test: ELISA; conditions: both partners purified
binder,measurement,setting,value
B1,Kd,[1],1.33 nM
same,binding result,[2],binds
